US20220162265A1 (University of Washington, published 2022)

Biological target: the molecule itself
Assay: self-assembly into 2D arrays, negative-stain EM and AFM
Description: Samples were applied to glow-discharged EM grids and stained with either uranyl acetate (UA), uranyl formate (UF) or NanoW™ (Nanoprobes, Inc, Yaphank, N.Y., USA) for screening or analysis. Data was collected using a Tecnai T12 equipped with a Gatan Orius CCD. CTF estimation was performed using GCTF (10), and all other image processing steps were completed via Relion™ 2.1 (11). For the analysis in FIG. 2G, 421 2D array segments were picked manually from 42 micrographs, and the resulting 2D class average used as a template for Relion™ autopicking, which yielded 5,823 2D array segments. After subsequent 2D classification and alignment, the dominant 2D class consisted of 1,893 array segments (each approximately 20 nm diameter).

B1: 2D-HP (designed binder)
chain: MGSRTMYIRALEQSLREQEELAKRLKELLRELERLQREGSSDRDVKVLLWEIEALVEEIEKLARLQKELVEKLKRQGSGNMYIRALEQSLREQEELAKRLKELLRELERLQREGSSDRDVKVLLWEIEALVEEIEKLARLQKELVEKLKRQD
notes: Expressed from pET28b(+) between NdeI and XhoI; also called design 2D-HP; designed 2D assembly 2D-HP
  binding result: binds
